Source: patent US20250026805A1 (DUCENTIS BIOTHERAPEUTICS, published 2025)
Where a chain is given by its changes, count along the chain named. Numbers in names are those of the source.

T1: Recombinant Human CD200R, His tagged (human, UniProt Q8TD46 27-266, limits assumed)
T1 construct: Bought reagent; Flowed in solution as the analyte in the SPR; also called human CD200 receptor; CD200 receptor; not shown: His tag
T1 sequence (looked up): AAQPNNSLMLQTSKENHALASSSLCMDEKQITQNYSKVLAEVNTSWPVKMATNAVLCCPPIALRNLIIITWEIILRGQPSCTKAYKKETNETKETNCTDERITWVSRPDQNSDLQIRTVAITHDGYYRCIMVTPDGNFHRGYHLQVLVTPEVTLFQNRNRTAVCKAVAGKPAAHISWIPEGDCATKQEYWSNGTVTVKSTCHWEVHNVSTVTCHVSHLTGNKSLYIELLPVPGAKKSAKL

B1: DS-150 mutant CD200-Fc fusion protein (K130F, I131F, IgG2 Fc) (Fc fusion)
chain: QVQVVTQDEREQLYTPASLKCSLQNAQEALIVTWQKKKAVSPENMVTFSENHGVVIQPAYKDKINITQLGLQNSTITFWNITLEDEGCYMCLFNTFGFGFFSGTACLTVYVQPIVSLHYKFSEDHLNITCSATARPAPMVFWKVPRSGIENSTVTLSHPNGTTSVTSILHIKDPKNQVGKEVICQVLHLGTVTDFKQTVNKGERKCCVECPPCPAPPVAGPSVFLFPPKPKDTLMISRTPEVTCVVVDVSHEDPEVQFNWYVDGVEVHNAKTKPREEQFNSTFRVVSVLTVVHQDWLNGKEYKCKVSNKGLPAPIEKTISKTKGQPREPQVYTLPPSREEMTKNQVSLTCLVKGFYPSDISVEWESNGQPENNYKTTPPMLDSDGSFFLYSKLTVDKSRWQQGNVFSCSVMHEALHNHYTQKSLSLSPGK
notes: Purified as the dimeric form
B2: DS-149 mutant CD200-Fc fusion protein (K130Y, I131F, IgG2 Fc) (Fc fusion)
chain: B1 chain with F100Y
notes: Purified as the dimeric form
B3: DS-151 mutant CD200-Fc fusion protein (K130F, I131Y, IgG2 Fc) (Fc fusion)
chain: B1 chain with F101Y
notes: Purified as the dimeric form
B4: DS-162 mutant CD200-Fc fusion protein (I131F, IgG2 Fc) (Fc fusion)
chain: B1 chain with F100K
notes: Purified as the dimeric form
B5: DS-161 mutant CD200-Fc fusion protein (K130F, IgG2 Fc) (Fc fusion)
chain: B1 chain with F101I
notes: Purified as the dimeric form

Tests used:
[1] = biological target: T1, Recombinant Human CD200R, His tagged; experiment: SPR (Biacore T200), CD200-Fc captured on anti-human Fc, His-tagged CD200R flowed over it, 25 C, 1:1 Langmuir model
Method: (§1) Anti-human Fc was covalently immobilized on a BIAcore CM5 sensor chip by amine coupling using a GE Healthcare kit following the manufacturer's instructions. Maximum immobilization target was set between 10000-15000 RU. Flow cell 1 was used as a reference, with no immobilized ligand, to permit deduction of non-specific binding to the chip surface. The Fc-ligands were diluted to 0.5 μg/mL in BIAcore running buffer (HBS-EP+: 10 mM HEPES buffered saline containing 2 mM EDTA and 0.05% surfactant P-20). In the final immobilization step, wild-type CD200-Fc, mutant CD200-Fc and un-related control protein (Herceptin/Trastuzumab) were passed over the chip (using flow cells 2, 3 and 4 respectively), for 120 seconds, at a concentration giving rise to a minimum of 250 response units (RU), followed by stabilization of the surface for 120 seconds in running buffer. The CD200-Fc capture procedure was repeated for every CD200R concentration.
(§2) Following capture of the Fc-tagged proteins, CD200R (at different concentrations) was flowed over the captured CD200-Fc and control proteins for 120 seconds (to observe association), followed by 120 seconds of running buffer (to observe dissociation). The chip surface was then regenerated using 10 mM Glycine-HCl (pH 2) for 30 seconds (30 μl/min flow rate) followed by stabilization of the surface for 60 seconds with BIAcore running buffer before the next cycle. All CD200R concentrations were run in duplicate at the following concentrations: 1 μM, 500 nM, 250 nM, 125 nM, 62.5 nM, 31.25 nM, 15.6 nM and 0 nM.
(§3) The results were represented in sensorgrams plotted as response or resonance units (Rus) versus time. The experimental sensorgrams were analyzed in BIAevaluation software version 1.0 (GE Healthcare). […] Rate equations using standard parameters (e.g. ligand concentration, time) were used for iterative curve fitting. Closeness of fit was determined by algorithms provided by the manufacturer in the BIAevaluation software version 1.0.

[2] = biological target: T1, Recombinant Human CD200R, His tagged; experiment: SPR (Biacore T200), CD200-Fc captured on anti-human Fc, His-tagged CD200R flowed over it, 25 C, two state binding model
Method: as §1, with “concentration. […]” for “concentration.”
(§4) The results were represented in sensorgrams plotted as response or resonance units (Rus) versus time. The experimental sensorgrams were analyzed in BIAevaluation software version 1.0 (GE Healthcare). […] Closeness of fit was determined by algorithms provided by the manufacturer in the BIAevaluation software version 1.0.

[3] = biological target: T1, Recombinant Human CD200R, His tagged; experiment: SPR (BIAcore T200, 25 C): CD200-Fc captured through anti-human Fc on a CM5 chip, His-tagged human CD200R flowed over it. Sensorgrams fitted with the 2 site (two state) binding model. Table 4 of the text gives 3.0 nM for this fit.
Method: as §1, with “concentration. […]” for “concentration.”
as §4

[4] = biological target: T1, Recombinant Human CD200R, His tagged; experiment: SPR (Biacore T200), CD200-Fc captured on anti-human Fc, His-tagged CD200R flowed over it, 25 C, 1:1 binding model
Method: as §1, §2, §3

| Molecule | Kd [1] | koff [1] | kon [1] | t½ [1] | Kd [2] | Kd [3] | Kd [4] | koff [4] | kon [4] | t½ [4] |
| --- | --- | --- | --- | --- | --- | --- | --- | --- | --- | --- |
| DS-155 wild-type CD200-Fc fusion protein (IgG4 S228P Fc) | 50 nM | 0.0251 s⁻¹ | 543000 M⁻¹ s⁻¹ | 0.467 min | – | – | – | – | – | – |
| B1 | 2.6 nM | 0.000226 s⁻¹ | 87500 M⁻¹ s⁻¹ | 51.2 min | – | – | – | – | – | – |
| B2 | 1.9 nM | 0.000229 s⁻¹ | 132000 M⁻¹ s⁻¹ | 50.5 min | – | – | – | – | – | – |
| B3 | 1.4 nM | 0.000181 s⁻¹ | 128000 M⁻¹ s⁻¹ | 63.8 min | – | – | – | – | – | – |
| B4 | – | – | – | – | 3 nM | 3.1 nM | 3 nM | 0.00474 s⁻¹ | 1.9e+06 M⁻¹ s⁻¹ | 2.43 min |
| B5 | 0.7 nM | 0.000593 s⁻¹ | 838000 M⁻¹ s⁻¹ | 19.5 min | – | – | – | – | – | – |
